Reference: patent US9575076

Experiments:
[1] = biological target: Thyroid Stimulating Hormone (TSH) (UniProt P01215); assay: FRET competition on Alexa488-labelled antigen; competitor BHQ-labelled 5409
[2] = biological target: Thyroid Stimulating Hormone (TSH) (UniProt P01215); assay: i-STAT sandwich cartridge with TSH; capture beads 414B, detection conjugate 5409
Luteinizing Hormone (LH) [3] = biological target: Luteinizing Hormone (LH) (UniProt P01215); assay: i-STAT sandwich cartridge, 0.4 mIU/L TSH plus LH, signal gain over TSH alone; capture 414B, detection TSH Ab 544
[4] = biological target: Thyroid Stimulating Hormone (TSH) (UniProt P01215); assay: FRET competition on Alexa488-labelled antigen; competitor BHQ-labelled ME130
[5] = biological target: Thyroid Stimulating Hormone (TSH) (UniProt P01215); assay: FRET competition on Alexa488-labelled antigen; competitor BHQ-labelled TSH Ab 544
[6] = biological target: Thyroid Stimulating Hormone (TSH) (UniProt P01215); assay: FRET competition on Alexa488-labelled antigen; competitor BHQ-labelled T25C
[7] = biological target: Follicle Stimulating Hormone (FSH) (UniProt P01215); assay: i-STAT sandwich cartridge, 0.4 mIU/L TSH plus FSH, signal gain over TSH alone; capture 414B, detection TSH Ab 544
[8] = biological target: Chorionic Gonadotropin (CG) (UniProt P01215); assay: i-STAT sandwich cartridge, 0.4 mIU/L TSH plus CG, signal gain over TSH alone; capture 414B, detection 5409
[9] = biological target: Chorionic Gonadotropin (CG) (UniProt P01215); assay: FRET quenching titration, BHQ-10 antibody and Alexa Fluor 488 antigen
Luteinizing Hormone (LH) [10] = biological target: Luteinizing Hormone (LH) (UniProt P01215); assay: as above
[11] = biological target: Follicle Stimulating Hormone (FSH) (UniProt P01215); assay: as above
[12] = biological target: Thyroid Stimulating Hormone (TSH) (UniProt P01215); assay: as above
Luteinizing Hormone (LH) [13] = biological target: Luteinizing Hormone (LH) (UniProt P01215); assay: i-STAT sandwich cartridge, 0.4 mIU/L TSH plus LH, signal gain over TSH alone; capture 414B, detection 5409
[14] = biological target: Thyroid Stimulating Hormone (TSH) (UniProt P01215); assay: i-STAT sandwich cartridge with TSH; capture beads 414B, detection conjugate M4
[15] = biological target: Thyroid Stimulating Hormone (TSH) (UniProt P01215); assay: i-STAT sandwich cartridge with TSH; capture beads 414B, detection conjugate TSH Ab 544
[16] = biological target: Thyroid Stimulating Hormone (TSH) (UniProt P01215); assay: FRET competition on Alexa488-labelled antigen; competitor BHQ-labelled M4
[17] = biological target: Follicle Stimulating Hormone (FSH) (UniProt P01215); assay: i-STAT sandwich cartridge, 0.4 mIU/L TSH plus FSH, signal gain over TSH alone; capture 414B, detection 5409
[18] = biological target: Chorionic Gonadotropin (CG) (UniProt P01215); assay: i-STAT sandwich cartridge, 0.4 mIU/L TSH plus CG, signal gain over TSH alone; capture 414B, detection TSH Ab 544
[19] = biological target: Thyroid Stimulating Hormone (TSH) (UniProt P01215); assay: FRET competition on Alexa488-labelled antigen; competitor BHQ-labelled 414B
[20] = biological target: Follicle Stimulating Hormone (FSH) (UniProt P01215); assay: i-STAT sandwich cartridge, 0.4 mIU/L TSH plus FSH, signal gain over TSH alone; capture 94544, detection 414B
[21] = biological target: Thyroid Stimulating Hormone (TSH) (UniProt P01215); assay: i-STAT sandwich cartridge with TSH; capture beads TSH Ab 544, detection conjugate 414B; further: test concentration or dose not given here
[22] = biological target: Chorionic Gonadotropin (CG) (UniProt P01215); assay: i-STAT sandwich cartridge, 0.4 mIU/L TSH plus CG, signal gain over TSH alone; capture 94544, detection 414B
[23] = biological target: Thyroid Stimulating Hormone (TSH) (UniProt P01215); assay: i-STAT sandwich cartridge with TSH; capture beads TSH Ab 544, detection conjugate 5409; further: test concentration or dose not given here
[24] = biological target: Thyroid Stimulating Hormone (TSH) (UniProt P01215); assay: i-STAT sandwich cartridge with TSH; capture beads TSH Ab 544, detection conjugate T25C
[25] = biological target: Thyroid Stimulating Hormone (TSH) (UniProt P01215); assay: i-STAT sandwich cartridge with TSH; capture beads TSH Ab 544, detection conjugate ME130; further: test concentration or dose not given here
[26] = biological target: Thyroid Stimulating Hormone (TSH) (UniProt P01215); assay: i-STAT sandwich cartridge with TSH; capture beads TSH Ab 544, detection conjugate M4; further: test concentration or dose not given here
Luteinizing Hormone (LH) [27] = biological target: Luteinizing Hormone (LH) (UniProt P01215); assay: i-STAT sandwich cartridge, 0.4 mIU/L TSH plus LH, signal gain over TSH alone; capture 94544, detection 414B

| Substance | relative fluorescence [1] [normalized] | relative fluorescence [4] [normalized] | relative fluorescence [5] [normalized] | relative fluorescence [6] [normalized] | Kd [9] [nM] | Kd (Luteinizing Hormone (LH) [10]) [nM] | Kd [11] [nM] | Kd [12] [nM] | relative fluorescence [16] [normalized] | relative fluorescence [19] [normalized] | other results |
| --- | --- | --- | --- | --- | --- | --- | --- | --- | --- | --- | --- |
| Seradyn anti-alpha-LH monoclonal antibody Cat#MIT0414B | 0.81 | 0.86 | 0.83 | 0.76 | 0.05 | 0.05 | 0.1 | 0.04 | 0.75 | 1 | electrochemical current [2]: 40.3 nA; LH CR (%) (Luteinizing Hormone (LH) [3]): 467%; FSH CR (%) [7]: 219%; CG CR (%) [8]: 84.6%; LH CR (%) (Luteinizing Hormone (LH) [13]): 348%; electrochemical current [14]: 41.3 nA; electrochemical current [15]: 10.2 nA; FSH CR (%) [17]: 260%; CG CR (%) [18]: 39.2% |
| TSH Ab 544 (Abbott Diagnostics Division) (antibody) | 0.96 | 0.72 | 1 | 0.71 | 210 | 1000 | 1000 | 1.31 | 0.92 | 0.89 | FSH CR (%) [20]: 7.15%; electrochemical current [21]: 25 nA; CG CR (%) [22]: 117%; electrochemical current [23]: 7.98 nA; electrochemical current [24]: 22.4 nA; electrochemical current [25]: 34.9 nA; electrochemical current [26]: 0.11 nA; LH CR (%) (Luteinizing Hormone (LH) [27]): 11.8% |
